Molecular target: PsFcγRIIa (recombinant soluble human FcγRIIa protein produced in baculovirus-infected Sf-21 cells) (human) (UniProt P12318)
Assay: SPR competition; monomeric IgG (0 to 2 mg/ml) premixed with 50 ug/ml PsFcγRIIa, passed over immobilised IgG1

molar excess giving complete inhibition (fold molar excess): 6
Substance: monomeric IgG (Sandaglobulin, available from Sandoz) (antibody)

— patent publication US20060057144A1
